Experimental data from PMC10513324.
Values belong to the molecule of their own block, whether it stands above or below them.

Key:
[1] = biological target: GST-Bicc1 (full-length, WT) (UniProt Q99MQ1); assay: pull-down; full-length GST-Bicc1 (WT or mutD) on glutathione-Sepharose 4B beads, no RNA; HEK293T cell extracts with full-length or truncated ANKS3-Flag; 2 h at 4°C; western blot
GST-Bicc1 WT = assay: GST pull-down, fluorescent RNA; conditions: 100 pmol labeled RNA with 5-10 pmol GST-Bicc1 on glutathione beads, 1 h at 4 C, then HEK293T extract (20 mM Tris-HCl pH 7.4, 2.5 mM MgCl2, 100 mM NaCl, 5% …)
GST-Bicc1 mutD = assay: GST pull-down, fluorescent RNA; conditions: after incubation with ANKS3-Flag HEK293T extract; 100 pmol labeled RNA with 5-10 pmol GST-Bicc1 on glutathione beads, 1 h at 4 C; then HEK293T extract (20 mM Tris-HCl pH 7.4, 2.5 mM MgCl2, 100 mM NaCl, 5% …)
[2] = biological target: GST-Bicc1-KH (complete KH tandem repeat of Bicc1 fused to GST); assay: pull-down; GST fusions of Bicc1 fragments (KH tandem repeat, KH1, KH2, IVS) on glutathione-Sepharose 4B beads; HEK293T cell extracts with ANKS3-Flag (full-length or ΔNter), without v5-ANKS6; 2 h at 4°C; western blot

UniProt Q99MQ1, sequence (Q99MQ1 whole entry, the tested form may be a part): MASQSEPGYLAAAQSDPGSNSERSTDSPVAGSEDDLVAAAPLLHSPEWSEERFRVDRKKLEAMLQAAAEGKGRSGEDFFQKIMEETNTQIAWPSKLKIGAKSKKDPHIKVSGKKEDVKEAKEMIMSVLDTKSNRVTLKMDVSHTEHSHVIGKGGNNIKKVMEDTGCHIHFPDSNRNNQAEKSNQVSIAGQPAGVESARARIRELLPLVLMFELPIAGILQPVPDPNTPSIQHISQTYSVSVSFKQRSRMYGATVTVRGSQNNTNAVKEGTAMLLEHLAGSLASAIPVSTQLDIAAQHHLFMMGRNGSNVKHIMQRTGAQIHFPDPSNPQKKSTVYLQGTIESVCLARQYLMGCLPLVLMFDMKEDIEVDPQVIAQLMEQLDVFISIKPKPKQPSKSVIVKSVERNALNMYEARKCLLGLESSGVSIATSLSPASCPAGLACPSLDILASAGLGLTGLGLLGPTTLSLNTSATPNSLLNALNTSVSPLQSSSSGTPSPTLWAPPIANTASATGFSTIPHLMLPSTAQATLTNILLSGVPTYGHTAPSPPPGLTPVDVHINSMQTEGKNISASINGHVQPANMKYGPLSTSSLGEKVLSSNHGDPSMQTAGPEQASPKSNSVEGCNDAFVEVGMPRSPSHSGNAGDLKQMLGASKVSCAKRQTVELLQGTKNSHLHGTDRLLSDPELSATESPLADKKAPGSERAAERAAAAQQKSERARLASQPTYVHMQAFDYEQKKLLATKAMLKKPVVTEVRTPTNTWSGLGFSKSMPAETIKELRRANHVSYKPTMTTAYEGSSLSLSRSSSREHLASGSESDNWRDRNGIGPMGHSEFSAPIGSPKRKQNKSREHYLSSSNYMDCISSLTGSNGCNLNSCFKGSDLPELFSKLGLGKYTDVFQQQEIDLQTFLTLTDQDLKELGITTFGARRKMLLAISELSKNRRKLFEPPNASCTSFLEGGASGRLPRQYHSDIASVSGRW

percent decrease of binding against full-length ANKS3-Flag [1]: 60%
Molecule: ANKS3 ΔSAM-Flag (from UniProt Q6ZW76 1-656) (domain or fragment)

Molecule: Dand5-3'UTR 66-110 RNA
binding signal (% (reference)) (GST-Bicc1 WT): 100
binding signal (% of RNA bound by WT GST-Bicc1) (GST-Bicc1 mutD): 231

Molecule: Dand5-3'UTR 226-270 RNA
binding signal (% (relative to 66-110 RNA, inferred)) (GST-Bicc1 WT; with ANKS3-Flag HEK293T extract): 17.2

fold change of binding against full-length ANKS3 [2]: 8 fold
B1: ANKS3 ΔNter-Flag (domain or fragment)
chain: MMDTYSPSLPKSLYRSPEKYEDLSSSDESCPAPQRQRPCRKKGVSIHEGPRALARITGIGLGGRAPRPRYEQAPPRGYVTFNSSGENPLEEEGLCCRDVTSPINERDVESSSSSSSREEHAFCANLGPVQSSSSSEGLARAQGLSSEASVESNEDSDHACKSSARKQAKSYMKTKNPDSQWPPRAATDREGFLAESSPQTQRAPYSGPQDLAALLEQIGCLKYLQVFEEQDVDLRIFLTLTESDLKEIGITLFGPKRKMTSAIARWHSSARPPGDALELAYADRLEAEMQELAIQLHKRCEEVEATRGQVCQEQELRAVVESCLLEQDRAREDLQARLRETWALARDAALVLDQLRACQAELSSRVRQDQPPGAATLGLAVPPADSKGWQASLQAMSLPELSGALEDRVREMGQALCLVTQSLEKLQVLNGKKWRET
